# Data from patent US20230193332A1.
# T1: NdmA (wild-type caffeine N1-demethylase) (UniProt H9N289)
# T1 sequence (looked up): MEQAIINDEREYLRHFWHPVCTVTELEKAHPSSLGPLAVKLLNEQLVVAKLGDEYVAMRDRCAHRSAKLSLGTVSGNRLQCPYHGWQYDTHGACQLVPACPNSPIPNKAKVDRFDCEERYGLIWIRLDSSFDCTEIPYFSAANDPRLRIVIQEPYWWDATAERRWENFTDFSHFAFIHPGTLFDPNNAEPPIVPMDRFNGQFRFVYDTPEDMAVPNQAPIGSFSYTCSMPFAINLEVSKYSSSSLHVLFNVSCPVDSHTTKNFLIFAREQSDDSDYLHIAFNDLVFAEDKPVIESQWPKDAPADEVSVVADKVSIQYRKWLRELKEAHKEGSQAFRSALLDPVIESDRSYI
# T2: NdmB (wild-type theobromine N3-demethylase) (UniProt H9N290)
# T2 sequence (looked up): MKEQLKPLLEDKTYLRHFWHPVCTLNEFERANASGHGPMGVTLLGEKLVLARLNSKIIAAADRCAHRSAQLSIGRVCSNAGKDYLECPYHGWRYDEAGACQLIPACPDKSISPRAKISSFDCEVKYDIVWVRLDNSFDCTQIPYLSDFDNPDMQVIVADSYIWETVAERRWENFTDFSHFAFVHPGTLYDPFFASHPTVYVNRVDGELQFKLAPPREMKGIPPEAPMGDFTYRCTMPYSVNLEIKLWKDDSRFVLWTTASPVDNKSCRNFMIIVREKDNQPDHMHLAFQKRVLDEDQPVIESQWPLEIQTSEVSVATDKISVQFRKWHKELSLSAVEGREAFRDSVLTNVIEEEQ
# Columns and labels:
# [1] = target: T1, NdmA (wild-type caffeine N1-demethylase); assay: cell-based or functional assay
# [2] = target: T2, NdmB (wild-type theobromine N3-demethylase); assay: cell-based or functional assay
Binder,"N1-demethylase activity in NdmA cells, lower than in cells with the wild type reductase [1]",remaining N-demethylase activity in the in vivo assays (% of the wild-type enzyme) [1],"N3-demethylase activity in NdmB cells, reduction [2]",remaining N-demethylase activity in the in vivo assays (% of the wild-type enzyme) [2]
"NdmD V541W mutant (NdmDW) (enzyme, UniProt H9N291 1-588, looked up) MNKLDVNQWFPIATTEDLPKRHVFHATLLGQEMAIWRDDSGSVNAWENRCPHRGLRLTLGANTGNELRCQYHGWTYESGTGGCTFVPAHRDAPPPNAARVNTFPVREKHGFIWTTLGQPPGEPISILDDAQLVNAVKTNLHSVVIDADIDGVVSVLRQNLSAFIDVFGAASAEDLHLKSMLQDRGILVTRSGSIAIHFYMQRSTISKCVVHAQVLTPGRPGYELQKNYSYAMNVIRRAAEAVATDLISITDISDQTIEKLEVVRENMTKAPPTHYICEVVTRTQETGDINSYWLKPIGYPLPAFSPGMHISITTPEGSIRQYSLVNGPDERESFIIGVKKEIQSRGGSRSMHEDVKVGTQLKVTLPRNGFPLVQTRKHPILVAGGIGITPILCMAQALDQQGSSYEIHYFARAFEHVPFQDRLTALGDRLNVHLGLGPDETRAKLPDIMEIHNAQDVDVYTCGPQPMIETVSAVALAHGIAEESIRFEFFSKKNDVPVSDEEYEVELKKTGQIFTVSPGSTLLQACLDNDVRIEASCEQGWCGTCITPVVSGDLEHHDTYLSKKERESGKWIMPCVSRCKSKKIVLDL",7 % lower,> 60,36 % reduced,> 60
"NdmD V541R mutant (NdmDR) (enzyme, UniProt H9N291 1-588, looked up) MNKLDVNQWFPIATTEDLPKRHVFHATLLGQEMAIWRDDSGSVNAWENRCPHRGLRLTLGANTGNELRCQYHGWTYESGTGGCTFVPAHRDAPPPNAARVNTFPVREKHGFIWTTLGQPPGEPISILDDAQLVNAVKTNLHSVVIDADIDGVVSVLRQNLSAFIDVFGAASAEDLHLKSMLQDRGILVTRSGSIAIHFYMQRSTISKCVVHAQVLTPGRPGYELQKNYSYAMNVIRRAAEAVATDLISITDISDQTIEKLEVVRENMTKAPPTHYICEVVTRTQETGDINSYWLKPIGYPLPAFSPGMHISITTPEGSIRQYSLVNGPDERESFIIGVKKEIQSRGGSRSMHEDVKVGTQLKVTLPRNGFPLVQTRKHPILVAGGIGITPILCMAQALDQQGSSYEIHYFARAFEHVPFQDRLTALGDRLNVHLGLGPDETRAKLPDIMEIHNAQDVDVYTCGPQPMIETVSAVALAHGIAEESIRFEFFSKKNDVPVSDEEYEVELKKTGQIFTVSPGSTLLQACLDNDVRIEASCEQGRCGTCITPVVSGDLEHHDTYLSKKERESGKWIMPCVSRCKSKKIVLDL",30 % lower,> 60,20 % reduced,> 60
